Reference: US20040029228A1
One block for each substance: values may come before it.

Tests used:
Assay in all cases: cell-based or functional assay
[1] = molecular target: T1, human zcytor19 (Zyctor19) cytokine receptor (human)
T1 sequence (Q8IU57 1-520, looked up): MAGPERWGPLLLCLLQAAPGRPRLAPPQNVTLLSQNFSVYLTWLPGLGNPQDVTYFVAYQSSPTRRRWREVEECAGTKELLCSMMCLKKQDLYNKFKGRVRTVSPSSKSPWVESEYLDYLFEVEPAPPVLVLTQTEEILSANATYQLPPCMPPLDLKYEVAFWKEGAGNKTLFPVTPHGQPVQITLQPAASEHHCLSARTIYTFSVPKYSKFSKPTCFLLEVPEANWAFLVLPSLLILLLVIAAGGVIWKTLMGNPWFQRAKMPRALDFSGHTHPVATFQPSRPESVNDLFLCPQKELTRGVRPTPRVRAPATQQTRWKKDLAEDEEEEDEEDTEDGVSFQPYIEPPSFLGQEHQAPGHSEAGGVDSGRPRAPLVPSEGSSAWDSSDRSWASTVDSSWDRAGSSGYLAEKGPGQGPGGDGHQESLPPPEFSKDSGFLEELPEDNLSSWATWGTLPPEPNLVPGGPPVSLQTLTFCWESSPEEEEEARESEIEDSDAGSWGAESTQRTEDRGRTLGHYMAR

[2] = molecular target: zcytoR19 and IL10Rb (CRF2-4) co-expressed on cells (heterodimeric receptor) (human)
[3] = molecular target: human CRF2-4 (IL10Rb) (human)
human CRF2-4 (IL10Rb) (human), sequence (Q08334 whole entry): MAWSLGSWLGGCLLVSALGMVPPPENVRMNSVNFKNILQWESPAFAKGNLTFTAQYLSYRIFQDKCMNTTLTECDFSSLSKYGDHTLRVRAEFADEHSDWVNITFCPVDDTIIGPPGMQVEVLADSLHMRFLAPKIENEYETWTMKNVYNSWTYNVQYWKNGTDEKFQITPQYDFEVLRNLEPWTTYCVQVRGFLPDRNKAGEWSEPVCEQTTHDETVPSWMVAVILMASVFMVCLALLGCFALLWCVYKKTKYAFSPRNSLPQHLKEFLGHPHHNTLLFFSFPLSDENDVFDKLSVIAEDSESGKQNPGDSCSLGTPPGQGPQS

zcyto21 (ligand), sequence (Q8IU54 20-200): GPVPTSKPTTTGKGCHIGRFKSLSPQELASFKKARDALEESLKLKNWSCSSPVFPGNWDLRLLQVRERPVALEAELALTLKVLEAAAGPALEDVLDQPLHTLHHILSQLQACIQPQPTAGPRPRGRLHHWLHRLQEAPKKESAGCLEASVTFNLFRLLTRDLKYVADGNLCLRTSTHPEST

Substance: huIL10 (from UniProt P22301 19-178) (ligand)
- ISRE-luciferase fold induction, 293 cells transfected with ISRE-Luc./Zcytor19, HuIL10 100 ng/ml (fold induction) [1]: 0.5

Substance: zcyto20-CEE (ligand)
- Optical Density (570 nm) of EMCV-infected cells, HuzcytoR19-overexpressing 293 cells, Zcyto20-CEE 0.5 ng/ml, Anti-IL10Rb 5 µg/ml [3]: 0.95 OD 570 nm
- Optical Density (570 nm) of EMCV-infected cells, HuzcytoR19-overexpressing 293 cells, Zcyto20-CEE 0.5 ng/ml, Anti-LeptinR control antibody 5 µg/ml [3]: 2.24 OD 570 nm
- Optical Density (570 nm) of EMCV-infected cells, wild-type 293 cells, Zcyto20-CEE 200 ng/ml, Anti-IL10Rb 5 µg/ml [3]: 0.94 OD 570 nm
- Optical Density (570 nm) of EMCV-infected cells, wild-type 293 cells, Zcyto20-CEE 200 ng/ml, Anti-LeptinR control antibody 5 µg/ml [3]: 1.88 OD 570 nm

Substance: zcyto21 (ligand)
- ISRE-luciferase fold induction, BHK cells transfected with zcytoR19 and IL10Rb (CRF2-4), zcyto21 0.001 ng/ml (fold induction) [2]: 1.3
- ISRE-luciferase fold induction, BHK cells transfected with zcytoR19 and IL10Rb (CRF2-4), zcyto21 0.01 ng/ml (fold induction) [2]: 1.6
- ISRE-luciferase fold induction, BHK cells transfected with zcytoR19 and IL10Rb (CRF2-4), zcyto21 0.1 ng/ml (fold induction) [2]: 2.2
- ISRE-luciferase fold induction, BHK cells transfected with zcytoR19 and IL10Rb (CRF2-4), zcyto21 1 ng/ml (fold induction) [2]: 2.5
- ISRE-luciferase fold induction, BHK cells transfected with zcytoR19 and IL10Rb (CRF2-4), zcyto21 10 ng/ml (fold induction) [2]: 2.6
- ISRE-luciferase fold induction, BHK cells transfected with zcytoR19 and IL10Rb (CRF2-4), zcyto21 100 ng/ml (fold induction) [2]: 2.5
- ISRE-luciferase fold induction, BHK cells transfected with zcytoR19 and IL10Rb (CRF2-4), zcyto21 1000 ng/ml (fold induction) [2]: 2.2
- ISRE-luciferase fold induction, wild-type 293 cells, Zcyto21 0.001 ng/ml (fold induction) [3]: 1.2
- ISRE-luciferase fold induction, wild-type 293 cells, Zcyto21 0.001 ng/ml + IL10Rb neutralizing Antibody (fold induction) [3]: 1.3
- ISRE-luciferase fold induction, wild-type 293 cells, Zcyto21 0.01 ng/ml (fold induction) [3]: 1.2
- ISRE-luciferase fold induction, wild-type 293 cells, Zcyto21 0.01 ng/ml + IL10Rb neutralizing Antibody (fold induction) [3]: 1.3
- ISRE-luciferase fold induction, wild-type 293 cells, Zcyto21 0.1 ng/ml (fold induction) [3]: 1.1
- ISRE-luciferase fold induction, wild-type 293 cells, Zcyto21 0.1 ng/ml + IL10Rb neutralizing Antibody (fold induction) [3]: 1.3
- ISRE-luciferase fold induction, wild-type 293 cells, Zcyto21 1 ng/ml (fold induction) [3]: 1.5
- ISRE-luciferase fold induction, wild-type 293 cells, Zcyto21 1 ng/ml + IL10Rb neutralizing Antibody (fold induction) [3]: 1.3
- ISRE-luciferase fold induction, wild-type 293 cells, Zcyto21 10 ng/ml (fold induction) [3]: 3.2
- ISRE-luciferase fold induction, wild-type 293 cells, Zcyto21 10 ng/ml + IL10Rb neutralizing Antibody (fold induction) [3]: 1.4
- ISRE-luciferase fold induction, wild-type 293 cells, Zcyto21 100 ng/ml (fold induction) [3]: 4.1
- ISRE-luciferase fold induction, wild-type 293 cells, Zcyto21 100 ng/ml + IL10Rb neutralizing Antibody (fold induction) [3]: 1.8
- ISRE-luciferase fold induction, zcytoR19-overexpressing 293 cells, Zcyto21 0.001 ng/ml (fold induction) [3]: 1.1
- ISRE-luciferase fold induction, zcytoR19-overexpressing 293 cells, Zcyto21 0.001 ng/ml + IL10Rb neutralizing Antibody (fold induction) [3]: 1
- ISRE-luciferase fold induction, zcytoR19-overexpressing 293 cells, Zcyto21 0.01 ng/ml (fold induction) [3]: 1.5
- ISRE-luciferase fold induction, zcytoR19-overexpressing 293 cells, Zcyto21 0.01 ng/ml + IL10Rb neutralizing Antibody (fold induction) [3]: 1.1
- ISRE-luciferase fold induction, zcytoR19-overexpressing 293 cells, Zcyto21 0.1 ng/ml (fold induction) [3]: 3.5
- ISRE-luciferase fold induction, zcytoR19-overexpressing 293 cells, Zcyto21 0.1 ng/ml + IL10Rb neutralizing Antibody (fold induction) [3]: 1
- ISRE-luciferase fold induction, zcytoR19-overexpressing 293 cells, Zcyto21 1 ng/ml (fold induction) [3]: 35
- ISRE-luciferase fold induction, zcytoR19-overexpressing 293 cells, Zcyto21 1 ng/ml + IL10Rb neutralizing Antibody (fold induction) [3]: 5.8
- ISRE-luciferase fold induction, zcytoR19-overexpressing 293 cells, Zcyto21 10 ng/ml (fold induction) [3]: 48
- ISRE-luciferase fold induction, zcytoR19-overexpressing 293 cells, Zcyto21 10 ng/ml + IL10Rb neutralizing Antibody (fold induction) [3]: 28
- ISRE-luciferase fold induction, zcytoR19-overexpressing 293 cells, Zcyto21 100 ng/ml (fold induction) [3]: 45
- ISRE-luciferase fold induction, zcytoR19-overexpressing 293 cells, Zcyto21 100 ng/ml + IL10Rb neutralizing Antibody (fold induction) [3]: 31
- ISRE-luciferase fold induction, BHK cells transfected with zcytoR19 alone, zcyto21 0.001 ng/ml (fold induction) [1]: 1.3
- ISRE-luciferase fold induction, BHK cells transfected with zcytoR19 alone, zcyto21 0.01 ng/ml (fold induction) [1]: 1.4
- ISRE-luciferase fold induction, BHK cells transfected with zcytoR19 alone, zcyto21 0.1 ng/ml (fold induction) [1]: 1.4
- ISRE-luciferase fold induction, BHK cells transfected with zcytoR19 alone, zcyto21 1 ng/ml (fold induction) [1]: 2
- ISRE-luciferase fold induction, BHK cells transfected with zcytoR19 alone, zcyto21 10 ng/ml (fold induction) [1]: 2.4
- ISRE-luciferase fold induction, BHK cells transfected with zcytoR19 alone, zcyto21 100 ng/ml (fold induction) [1]: 2.6
- ISRE-luciferase fold induction, BHK cells transfected with zcytoR19 alone, zcyto21 1000 ng/ml (fold induction) [1]: 3.3

Continued, values first:

- ISRE-luciferase fold induction, 293 cells transfected with ISRE-Luc./Zcytor19, Zcyto10 125 ng/ml (fold induction) [1]: 1
Substance: zcyto10 (from UniProt Q9NYY1 25-176) (ligand)

- ISRE-luciferase fold induction, BHK cells transfected with zcytoR19 and IL10Rb (CRF2-4), zcyto20 0.001 ng/ml (fold induction) [2]: 1.5
- ISRE-luciferase fold induction, BHK cells transfected with zcytoR19 and IL10Rb (CRF2-4), zcyto20 0.01 ng/ml (fold induction) [2]: 1.6
- ISRE-luciferase fold induction, BHK cells transfected with zcytoR19 and IL10Rb (CRF2-4), zcyto20 0.1 ng/ml (fold induction) [2]: 2.1
- ISRE-luciferase fold induction, BHK cells transfected with zcytoR19 and IL10Rb (CRF2-4), zcyto20 1 ng/ml (fold induction) [2]: 2.5
- ISRE-luciferase fold induction, BHK cells transfected with zcytoR19 and IL10Rb (CRF2-4), zcyto20 10 ng/ml (fold induction) [2]: 2.4
- ISRE-luciferase fold induction, BHK cells transfected with zcytoR19 and IL10Rb (CRF2-4), zcyto20 100 ng/ml (fold induction) [2]: 2.6
- ISRE-luciferase fold induction, BHK cells transfected with zcytoR19 and IL10Rb (CRF2-4), zcyto20 1000 ng/ml (fold induction) [2]: 2.1
- ISRE-luciferase fold induction, wild-type 293 cells, Zcyto20 0.01 ng/ml (fold induction) [3]: 1
- ISRE-luciferase fold induction, wild-type 293 cells, Zcyto20 0.01 ng/ml + IL10Rb neutralizing Antibody (fold induction) [3]: 0.8
- ISRE-luciferase fold induction, wild-type 293 cells, Zcyto20 0.1 ng/ml (fold induction) [3]: 1
- ISRE-luciferase fold induction, wild-type 293 cells, Zcyto20 0.1 ng/ml + IL10Rb neutralizing Antibody (fold induction) [3]: 1
- ISRE-luciferase fold induction, wild-type 293 cells, Zcyto20 1 ng/ml (fold induction) [3]: 1
- ISRE-luciferase fold induction, wild-type 293 cells, Zcyto20 1 ng/ml + IL10Rb neutralizing Antibody (fold induction) [3]: 0.9
- ISRE-luciferase fold induction, wild-type 293 cells, Zcyto20 10 ng/ml (fold induction) [3]: 4
- ISRE-luciferase fold induction, wild-type 293 cells, Zcyto20 10 ng/ml + IL10Rb neutralizing Antibody (fold induction) [3]: 0.9
- ISRE-luciferase fold induction, wild-type 293 cells, Zcyto20 100 ng/ml (fold induction) [3]: 8.4
- ISRE-luciferase fold induction, wild-type 293 cells, Zcyto20 100 ng/ml + IL10Rb neutralizing Antibody (fold induction) [3]: 0.8
- ISRE-luciferase fold induction, zcytoR19-overexpressing 293 cells, Zcyto20 0.01 ng/ml (fold induction) [3]: 1.1
- ISRE-luciferase fold induction, zcytoR19-overexpressing 293 cells, Zcyto20 0.01 ng/ml + IL10Rb neutralizing Antibody (fold induction) [3]: 1.2
- ISRE-luciferase fold induction, zcytoR19-overexpressing 293 cells, Zcyto20 0.1 ng/ml (fold induction) [3]: 6
- ISRE-luciferase fold induction, zcytoR19-overexpressing 293 cells, Zcyto20 0.1 ng/ml + IL10Rb neutralizing Antibody (fold induction) [3]: 1.1
- ISRE-luciferase fold induction, zcytoR19-overexpressing 293 cells, Zcyto20 1 ng/ml (fold induction) [3]: 68
- ISRE-luciferase fold induction, zcytoR19-overexpressing 293 cells, Zcyto20 1 ng/ml + IL10Rb neutralizing Antibody (fold induction) [3]: 1.3
- ISRE-luciferase fold induction, zcytoR19-overexpressing 293 cells, Zcyto20 10 ng/ml (fold induction) [3]: 97
- ISRE-luciferase fold induction, zcytoR19-overexpressing 293 cells, Zcyto20 10 ng/ml + IL10Rb neutralizing Antibody (fold induction) [3]: 23
- ISRE-luciferase fold induction, zcytoR19-overexpressing 293 cells, Zcyto20 100 ng/ml (fold induction) [3]: 91
- ISRE-luciferase fold induction, zcytoR19-overexpressing 293 cells, Zcyto20 100 ng/ml + IL10Rb neutralizing Antibody (fold induction) [3]: 60
- ISRE-luciferase fold induction, 293 cells transfected with ISRE-Luc./Zcytor19, Zcyto20 125 ng/ml (fold induction) [1]: 125
- ISRE-luciferase fold induction, BHK cells transfected with zcytoR19 alone, zcyto20 0.001 ng/ml (fold induction) [1]: 1.4
- ISRE-luciferase fold induction, BHK cells transfected with zcytoR19 alone, zcyto20 0.01 ng/ml (fold induction) [1]: 1.2
- ISRE-luciferase fold induction, BHK cells transfected with zcytoR19 alone, zcyto20 0.1 ng/ml (fold induction) [1]: 1.25
- ISRE-luciferase fold induction, BHK cells transfected with zcytoR19 alone, zcyto20 1 ng/ml (fold induction) [1]: 1.3
- ISRE-luciferase fold induction, BHK cells transfected with zcytoR19 alone, zcyto20 10 ng/ml (fold induction) [1]: 2.1
- ISRE-luciferase fold induction, BHK cells transfected with zcytoR19 alone, zcyto20 100 ng/ml (fold induction) [1]: 2.2
- ISRE-luciferase fold induction, BHK cells transfected with zcytoR19 alone, zcyto20 1000 ng/ml (fold induction) [1]: 2.25
Substance: zcyto20 (ligand)
